In publication PMC3947954:

What was measured:
[1] = molecular target: HIP14-GFP (Huntingtin Interacting Protein 14, GFP tagged) (human (from the printed RefSeq entries)) (UniProt Q8IUH5); test: co-IP; COS-7 cells transiently co-transfected, harvested after 24 h; lysed in 1% SDS TEEN, diluted in four volumes 1% TritonX-100 TEEN; GFP immunoprecipitated overnight (goat anti-GFP, Dynabeads Protein G); blots probed for HTT and GFP; HTT band as percent of the GFP band, normalized to 15Q HTT 1–548
[2] = molecular target: HIP14L-GFP (Huntingtin Interacting Protein 14-like, GFP tagged) (human (from the printed RefSeq entries)) (UniProt Q8IUH4); test: as above
UniProt Q8IUH4, sequence (Q8IUH4 whole entry): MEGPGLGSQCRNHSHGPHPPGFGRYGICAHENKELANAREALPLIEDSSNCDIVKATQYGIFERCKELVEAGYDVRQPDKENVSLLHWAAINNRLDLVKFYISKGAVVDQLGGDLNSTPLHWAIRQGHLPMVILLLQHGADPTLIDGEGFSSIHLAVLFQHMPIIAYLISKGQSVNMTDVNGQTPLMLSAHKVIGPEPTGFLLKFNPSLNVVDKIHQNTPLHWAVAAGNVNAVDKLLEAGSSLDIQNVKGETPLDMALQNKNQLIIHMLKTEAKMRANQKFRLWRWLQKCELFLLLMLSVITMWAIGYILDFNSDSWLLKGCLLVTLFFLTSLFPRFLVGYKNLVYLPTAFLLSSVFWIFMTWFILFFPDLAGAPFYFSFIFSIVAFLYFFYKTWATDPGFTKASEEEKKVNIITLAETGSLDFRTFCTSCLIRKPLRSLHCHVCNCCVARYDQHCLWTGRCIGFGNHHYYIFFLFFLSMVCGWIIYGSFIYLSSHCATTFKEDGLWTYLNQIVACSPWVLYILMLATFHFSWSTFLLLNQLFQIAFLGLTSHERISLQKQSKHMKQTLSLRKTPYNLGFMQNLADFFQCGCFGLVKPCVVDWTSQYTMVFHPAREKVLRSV

UniProt Q8IUH5, sequence (Q8IUH5 whole entry): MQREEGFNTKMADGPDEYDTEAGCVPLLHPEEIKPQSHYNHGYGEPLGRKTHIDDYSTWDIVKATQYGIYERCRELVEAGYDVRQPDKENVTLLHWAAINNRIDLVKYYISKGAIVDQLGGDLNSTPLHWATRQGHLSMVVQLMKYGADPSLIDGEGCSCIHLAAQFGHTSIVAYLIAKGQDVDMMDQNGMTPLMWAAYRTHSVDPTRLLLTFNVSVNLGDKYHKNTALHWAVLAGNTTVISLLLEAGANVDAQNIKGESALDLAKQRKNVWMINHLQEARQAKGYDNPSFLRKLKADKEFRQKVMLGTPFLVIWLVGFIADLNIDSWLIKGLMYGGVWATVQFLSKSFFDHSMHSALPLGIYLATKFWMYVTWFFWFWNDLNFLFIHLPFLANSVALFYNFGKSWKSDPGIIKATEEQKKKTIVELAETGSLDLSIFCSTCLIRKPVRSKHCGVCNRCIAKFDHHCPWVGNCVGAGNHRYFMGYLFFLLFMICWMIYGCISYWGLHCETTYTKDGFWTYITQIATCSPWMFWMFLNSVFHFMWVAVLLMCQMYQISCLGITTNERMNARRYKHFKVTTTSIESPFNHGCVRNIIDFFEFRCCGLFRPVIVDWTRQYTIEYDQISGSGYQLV

percent less co-immunoprecipitated than 15Q HTT 1–548 [1]: 57% | percent decrease of interaction against 15Q HTT 1–548 [2]: 54%
Substance: 128Q HTT 1–548 (domain or fragment)
